The results in this text go back to PMC6913123.

The target in the data set is T1, DDX21 (Homo sapiens) (UniProt Q9NR30).
T1 sequence: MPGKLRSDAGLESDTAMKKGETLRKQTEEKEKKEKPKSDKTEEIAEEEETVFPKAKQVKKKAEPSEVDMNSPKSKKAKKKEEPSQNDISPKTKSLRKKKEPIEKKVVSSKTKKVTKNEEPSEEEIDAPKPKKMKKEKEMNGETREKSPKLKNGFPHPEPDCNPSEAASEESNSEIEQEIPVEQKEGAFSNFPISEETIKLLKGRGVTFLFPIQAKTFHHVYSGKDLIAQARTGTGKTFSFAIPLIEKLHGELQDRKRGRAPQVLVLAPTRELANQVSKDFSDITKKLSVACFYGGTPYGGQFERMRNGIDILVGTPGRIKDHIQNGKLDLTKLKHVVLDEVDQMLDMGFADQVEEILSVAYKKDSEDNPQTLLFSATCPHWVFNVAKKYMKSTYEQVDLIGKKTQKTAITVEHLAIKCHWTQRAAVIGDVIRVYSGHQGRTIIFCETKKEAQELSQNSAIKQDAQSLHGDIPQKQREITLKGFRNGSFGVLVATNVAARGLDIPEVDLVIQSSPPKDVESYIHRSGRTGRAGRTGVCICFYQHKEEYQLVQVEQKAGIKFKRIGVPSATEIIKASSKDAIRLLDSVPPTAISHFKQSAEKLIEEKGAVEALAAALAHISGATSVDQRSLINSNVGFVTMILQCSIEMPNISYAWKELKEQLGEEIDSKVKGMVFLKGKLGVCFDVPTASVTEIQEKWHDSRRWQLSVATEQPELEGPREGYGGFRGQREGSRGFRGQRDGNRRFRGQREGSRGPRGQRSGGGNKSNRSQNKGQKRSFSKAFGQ
The data set is described as follows: EMSA. In general terms: A gel shift assay detects complexes by their altered migration in electrophoresis.

In turn, “AGUGGCAUAAACAUGGGCUUUGGCGUCAGACAGCCCUGAGCGGGGCCCCAUUGCCCCACCCCCGAGGAAGGCGAGGGGGGGUGGCAGGGGGCUGCGGAAAGGGGCUGGGCUGGGUUGGGCUGUCUGCAGCUCUAGUCCAGGAGGCUGAGACUUCGAGAGGGACUUAGAGAAGGCAGACGCAUCCCGAACUCGCUGGAGGACAAGGCUCAGCUCUUGCCAGGCCAAAUUGAGAC [MAGED2 TV2 5'-UTR]” came in with a Kd of 0.1 µM.

The term Kd denotes the free concentration of one partner at which half of the binding sites on the other are occupied at equilibrium, for simple one-to-one binding. Read a low Kd as higher affinity.
